T1: PfRH5 from Plasmodium falciparum strain 3D7 (Plasmodium falciparum, UniProt Q8IFM5 25-526)
T1 sequence: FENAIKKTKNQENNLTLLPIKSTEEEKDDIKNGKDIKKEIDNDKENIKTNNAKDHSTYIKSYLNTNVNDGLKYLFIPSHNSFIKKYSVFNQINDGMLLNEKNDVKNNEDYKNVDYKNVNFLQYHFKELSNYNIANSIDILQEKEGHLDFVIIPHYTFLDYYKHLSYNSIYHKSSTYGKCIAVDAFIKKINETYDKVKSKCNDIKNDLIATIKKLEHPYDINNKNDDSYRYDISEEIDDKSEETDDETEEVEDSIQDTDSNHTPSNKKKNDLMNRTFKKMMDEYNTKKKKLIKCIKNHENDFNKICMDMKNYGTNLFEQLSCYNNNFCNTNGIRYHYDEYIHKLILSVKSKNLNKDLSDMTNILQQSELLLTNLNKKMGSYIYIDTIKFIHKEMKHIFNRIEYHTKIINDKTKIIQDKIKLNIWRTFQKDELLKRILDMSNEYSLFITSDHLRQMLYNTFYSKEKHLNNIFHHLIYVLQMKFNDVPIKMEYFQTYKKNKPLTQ

B1: H1H29149P2 (antibody, V domains shown)
VH: QVQLQESGPGLVKPSQTLSLTCTVSGGSISSGGYYWNWIRQHPGKGLEWIGYIYYSGSTYYNPSLKSRVTISVDTSKNQFSLKLGSVTAADTAVYYCARAPPYNWFDYWGQGTLVTVSS
VL: not shown
B2: H1H29125P (antibody, V domains shown)
VH: QVQLVESGGGVVQPGRSLRLSCAASGFTFSSYGMHWVRQAPGKGLEWMAVISYDGSNKYYADSVKGRFTISRDNSKNTLFLQMNSLRPEDTAVYYCAQDGSSAIYYFYGMDVWGQGTTVTVSS
VL: DIQMTQSPSSLSASIGDRVTITCRASQDINNYLAWFQQKPGKAPKSLIYAASSLQSGVPSKFSGSGSGTDFTLTISSLQPEDFATYYCLQYNSYHPTFGQGTKLEIKR
B3: H1H29146P2 (antibody, V domains shown)
VH: EVQLVESGGGLVQPGGSLQLSCAASGFAFSDSAIYWVRQASGKGLEWVGRIRNKANRFATAYGASVKGRFSIHRDDSKNTAYLQMNSLKTEDTAVYYCARHGHDTLTEGYGMDVWGQGTTVTVSS
VL: not shown
B4: H1H29215P2 (antibody, V domains shown)
VH: QVQLQQWGAGLLKPSETLSLTCAVSDESFSDYYWTWIRQPPGKGLEWIGEITHSGSTHYNPSLKSRVTLSVDTSKNHFSLSLNSVTAADTAIYYCARGGDYGGLLDYWGQGTLVTVSS
VL: not shown
B5: H1H29138P (antibody, V domains shown)
VH: QVQLVESGGGVVQPGRSLRLSCAASGFTFSTYGMHWVRQAPGKGLEWVAVIWYDGTNKYYADSVKGRFTISRDNSKNTLYLQMISLRAEDTAVYYCARDPSGGDHYYYYGMDVWGQGTTVTVSS
VL: DIQMTQSPSSLSASVGDRITITCQASQDISNYLNWYQQKPGKAPNLLISDASDLETGVPSRFSGSGSGTDFTFTISSLQPEDFATYYCQQYDNIPITFGQGTRLEIKR
B6: H1H29209P2 (antibody, V domains shown)
VH: QLQLQESGPGLVKPSETLSLTCTVSGGSISSRSHYWGWIRQPPGKGLEWIGSIYYSGSTYYNPSLKSRVTISVDTSKNQFSLKLSSVTAADTAVYYCARLGWYAEEAFEIWGQGTMVTVSS
VL: not shown
B7: H1H29214P2 (antibody, V domains shown)
VH: QLQLQESGPGLVKPSETLSLTCTVSGGSISSSSYYWGWIRQPPGKGLEWIGSIYYSGSTYYNPSLKSRVTISVDTSKNQFSLKLSSVTAADTAVYYCARQGRWERENFDYWGQGTLVTVSS
VL: not shown
B8: H1H29196P2 (antibody, V domains shown)
VH: EVQLVESGGDLVQPGGSLRLSCAASGFAVNGDYFSWVRQAPGKGLEWISVIYSSGNTYYADSVKGRFTISRHNSKNTLYLQMSSLRPEDTAVYYCARDFPPMSGADYWGQGTLVTVSS
VL: not shown
B9: H1H29198P2 (antibody, V domains shown)
VH: QVQLVQSGAEVKKPGASVKVSCKVSGYTLTELSMHWVRQAPGKGLEWMGGFDPEHGKIIYAQKFQGRVTMTEDTSTDTAYMELSSLRSEDTAVYYCATFYNWNSYYFGMDVWGHGTTVTVSS
VL: not shown
B10: H1H29141P (antibody, V domains shown)
VH: QVQLVESGGGVVQPGRSLRLSCAASGFTFSSYGMHWVRQAPGKGLEWVTFISFDERNKYYADSVKGRFTISRDNSKNTLYLQMNSLRAEDTAMYYCASEVGYSFGHDAFDIWGQGTMVTVSS
VL: not shown
B11: H1H29192P2 (antibody, V domains shown)
VH: QVQLVQSGAEVKKPGASVRVSCMASGYTFTGYYMHWVRQAPGQGLEWMGWINPNSGGTKYAQKFQGRVTMTRDTSISTAYMELSRLRSDDTAVYYCAREEVDDFWSGYLDYWGQGTLVTVSS
VL: not shown
B12: H1H29207P2 (antibody, V domains shown)
VH: EVQLVESGGGLVQPGGSLRLSCAASGFTFSSYAMNWVRQAPGKGLEWVSAVSGSADITNYADSVKGRFTISRDNSKHTLYLQMNSLRAEDTAVYYCAKDKVYNWNYGIYYGMDVWGQGTTVTVSS
VL: not shown
B13: H1H29163P2 (antibody, V domains shown)
VH: QVQLVQSGAEVKKPGASVKVSCKTSGYTFTAYYIHWVRQAPGQGLEWMGWINPNNGDTNYALRFQGRVTMTRDMSINTAYMELRGLRSDDTAVYYCARDDLAAAGIGWFDSWGQGTLVTVSS
VL: not shown

How the values were obtained:
Experiment in all cases: cell-based or functional assay
[1] = biological target: PfRH5 from Plasmodium falciparum strain FCR-1/FVO (Plasmodium falciparum)
[2] = biological target: PfRH5 from Plasmodium falciparum strain RF7 (Plasmodium falciparum)
[3] = biological target: PfRH5 from Plasmodium falciparum strain Cam3.II (Plasmodium falciparum)
[4] = biological target: T1, PfRH5 from Plasmodium falciparum strain …
[5] = biological target: PfRH5 from Plasmodium falciparum strain D10 (Plasmodium falciparum)
[6] = biological target: PfRH5 from Plasmodium falciparum strain W2-mef (Plasmodium falciparum)
[7] = biological target: PfRH5 from Plasmodium falciparum strain HB3 (Plasmodium falciparum)
[8] = biological target: PfRH5 from Plasmodium falciparum strain Dd2 (Plasmodium falciparum)
[9] = biological target: PfRH5 from Plasmodium falciparum strain 7G8 (Plasmodium falciparum)

| Binder | Max growth inhibition (%) [1] | Max growth inhibition (%) [2] | Max growth inhibition (%) [3] | Max growth inhibition (%) [4] | Max growth inhibition (%) [5] | Max growth inhibition (%) [6] | Max growth inhibition (%) [7] | Max growth inhibition (%) [8] | Max growth inhibition (%) [9] |
| --- | --- | --- | --- | --- | --- | --- | --- | --- | --- |
| B1 | 58% | 14.7% | 36.2% | 44.1% | 66% | 42.8% | 40% | – | – |
| B2 | 67.6% | 21% | 42.7% | 51.1% | 75.4% | 64.6% | – | 51.4% | 47% |
| B3 | 7.32% | 5.97% | 8.18% | 8.57% | 10.8% | 0.57% | 33.9% | – | 19.1% |
| B4 | 54% | 11.3% | 27.2% | – | 35.8% | 37.2% | 30.1% | 22.8% | 33.2% |
| B5 | 84.1% | 51.4% | 48.7% | 58.5% | 57.1% | 66.4% | 51.4% | 74.4% | 57.4% |
| B6 | 19.2% | 11.9% | 47.3% | – | 72.7% | 39.6% | 52.4% | 38.1% | 49.9% |
| B7 | 13.1% | 11.2% | 46.7% | – | 76.5% | 52.7% | 59.1% | 47.2% | 56.7% |
| B8 | 21.9% | 3.78% | 6.09% | – | 14.3% | 17% | 26.8% | -1.65% | 23.4% |
| B9 | 11.1% | 1.53% | 14.7% | – | 4.38% | -3.61% | 15.5% | 10.1% | 5.31% |
| B10 | 74.2% | 32.1% | 49.3% | 48.2% | 50% | 56.2% | 50% | 65.3% | 54.6% |
| B11 | 15.1% | -7.69% | -3.38% | – | 8.7% | 4.35% | 5.62% | -15.2% | 12.4% |
| B12 | 69.2% | 31.1% | 45.3% | – | 73.9% | 65.2% | 49.3% | 61.3% | 58.7% |
| B13 | 64.5% | 10.7% | 46.7% | 55.6% | – | 63.7% | 56.5% | 61.2% | 62.6% |
